6 molecules from patent US20240287501A1 (VIB VZW, published 2024) can be followed below.

One assay addresses T1, GFP-tagged PGI1 (Saccharomyces cerevisiae, UniProt P12709 2-554).
T1 construct: Yeast GFP Fusion Collection strain; 88 kDa band; also called GFP-PGI1; Yeast GFP fusion collection GFP(+)12, H11; not shown: GFP tag
As to the kind of experiment: co-immunoprecipitation, Nb coupled to NHS-agarose beads, lysate of the yeast strain expressing the GFP-tagged target, SDS-PAGE. The procedure:
(§1) Three PGI1-specific Nanobodies (55=Nb clone CA17455 corresponding to SEQ ID NO: 15, 56=CA17456-SEQ ID NO: 16, 57=CA17457-SEQ ID NO: 17) were characterized by co-immunoprecipitation assays. Each PGI1-specific Nanobodies was covalently linked to NHS-agarose beads. The beads that were functionalized with these PGI1-specific Nanobodies were incubated for an hour at 4° C. on a rotating device with either an EBY100 lysate or the lysate of the engineered Yeast strain expressing PGI1 (Yeast GFP fusion collection reference: GFP(+)12, H11) as a GFP-tagged protein. After washing, these beads were resuspended in SDS-PAGE loading dye and analyzed on SDS-PAGE (FIG. 7A). Separated proteins were transferred to a PVDF membrane and the Western blot (FIG. 7B) was developed with GFP-specific antibody to confirm the presence of GFP-tagged PGI1.

Assay [1] addresses T2, PGI1 (native, un-tagged, from EBY100 lysate) (Saccharomyces cerevisiae, UniProt P12709 2-554).
T2 construct: mature; Endogenous untagged protein, 61 kDa band; also called YBR196C; endogenous PGI1
In words: co-immunoprecipitation, Nb coupled to NHS-agarose beads, EBY100 yeast lysate (native target), SDS-PAGE. The procedure:
as §1

Another assay concerns the target T3, GFP-tagged SSA1 (Saccharomyces cerevisiae, UniProt P10591 2-642).
T3 construct: Yeast GFP Fusion Collection strain; also called Yeast GFP fusion collection GFP(+)10, E4; not shown: GFP tag
As to the kind of experiment: co-immunoprecipitation, Nb coupled to NHS-agarose beads, lysate of the yeast strain expressing the GFP-tagged target, Western blot anti-GFP. As to the method:
Six SSA1-specific Nanobodies (60=Nb clone CA17560 corresponding to SEQ ID NO: 19, 61=CA17561-SEQ ID NO: 20, 62=CA17562-SEQ ID NO: 21, 63=CA17563-SEQ ID NO: 22, 64=CA17564-SEQ ID NO: 23, 65=CA17565-SEQ ID NO: 24) were characterized by co-immunoprecipitation assays. Each SSA1-specific Nanobodies was covalently linked to NHS-agarose beads. The beads that were functionalized with these SSA1-specific Nanobodies were incubated for an hour at 4° C. on a rotating device with either an EBY100 lysate or the lysate of the engineered Yeast strain expressing SSA1 (Yeast GFP fusion collection reference: GFP(+)10, E4) as a GFP-tagged protein. After washing, these beads were resuspended in SDS-PAGE loading dye and analyzed on SDS-PAGE (FIG. 6A). Separated proteins were transferred to a PVDF membrane and the Western blot (FIG. 6B) was developed with GFP-specific antibody to confirm the presence of GFP-tagged SSA1.
On the technique in general: Immunoblotting shows a protein as a band on a membrane.

In assay [2] the target is T4, SSA1 (native, from EBY100 lysate) (Saccharomyces cerevisiae, UniProt P10591 2-642).
T4 construct: mature; Endogenous untagged protein; also called YAL005C
In words: co-IP, Nb on NHS-agarose beads, EBY100 yeast lysate, SDS-PAGE.

T1 sequence (P12709 2-554): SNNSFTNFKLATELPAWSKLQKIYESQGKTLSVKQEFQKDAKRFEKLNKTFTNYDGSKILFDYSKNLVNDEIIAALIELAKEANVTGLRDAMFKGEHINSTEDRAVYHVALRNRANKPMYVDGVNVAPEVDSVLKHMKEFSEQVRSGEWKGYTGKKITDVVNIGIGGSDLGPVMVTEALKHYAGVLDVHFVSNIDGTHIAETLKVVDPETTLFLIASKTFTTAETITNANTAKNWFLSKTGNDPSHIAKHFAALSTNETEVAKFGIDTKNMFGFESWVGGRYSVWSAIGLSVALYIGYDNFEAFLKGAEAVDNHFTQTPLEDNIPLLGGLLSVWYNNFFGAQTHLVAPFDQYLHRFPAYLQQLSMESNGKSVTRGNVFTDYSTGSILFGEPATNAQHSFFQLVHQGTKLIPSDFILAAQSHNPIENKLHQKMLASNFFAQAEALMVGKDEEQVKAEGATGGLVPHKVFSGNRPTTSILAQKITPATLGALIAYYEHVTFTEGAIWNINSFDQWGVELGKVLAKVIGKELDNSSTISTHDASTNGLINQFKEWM
T2 sequence (P12709 2-554): as above
T3 sequence (P10591 2-642): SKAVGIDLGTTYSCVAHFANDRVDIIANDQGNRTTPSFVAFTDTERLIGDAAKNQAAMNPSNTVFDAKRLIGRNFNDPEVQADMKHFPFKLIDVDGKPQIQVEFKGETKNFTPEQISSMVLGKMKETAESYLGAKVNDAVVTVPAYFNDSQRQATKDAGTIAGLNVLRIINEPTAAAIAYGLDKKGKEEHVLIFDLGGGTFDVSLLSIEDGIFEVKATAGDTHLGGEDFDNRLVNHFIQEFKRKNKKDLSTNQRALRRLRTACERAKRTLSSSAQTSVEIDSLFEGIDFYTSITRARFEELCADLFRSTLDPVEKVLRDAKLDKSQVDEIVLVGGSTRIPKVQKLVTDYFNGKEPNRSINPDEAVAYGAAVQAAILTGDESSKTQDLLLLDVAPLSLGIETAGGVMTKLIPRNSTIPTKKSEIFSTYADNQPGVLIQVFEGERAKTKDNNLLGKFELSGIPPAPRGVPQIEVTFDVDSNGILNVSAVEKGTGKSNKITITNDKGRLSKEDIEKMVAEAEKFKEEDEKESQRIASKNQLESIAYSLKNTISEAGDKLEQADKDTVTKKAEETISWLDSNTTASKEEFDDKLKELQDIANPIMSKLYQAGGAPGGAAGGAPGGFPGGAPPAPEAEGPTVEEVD
T4 sequence (P10591 2-642): as above

B1: CA17455 (VHH)
VHH: QVQLVESGGGLVQPGGSLRLSCAASGITFPSYRLSWYRQAPGKERELVAAITSDGGTTNYADFVKGRFTISRDNTKNTVYLQMNSLKPEDTAVYYCKAQYFSTPLTYWGQGTQVTVSS
notes: C-terminal 6xHis-EPEA tag is part of the entry; also called PGI1-specific trapper/stripper
On to B1, for which the binding result (with GFP-tagged PGI1; in assay [1]) was “binds” throughout.

B2: CA17564 (VHH)
VHH: QVQLVESGGGLVQPGDSLRLSCVVSVQHFGNYIVGWFRQPPGKEREFVSAISRGLRTYYADSVKGRVTISRDNAKNSVYLQMNSLKPEDTAVYYCAGSRLLEGAPRDSRGYNNWGQGTQVTVSS
notes: C-terminal 6xHis-EPEA tag is part of the entry
On to B2, for which the binding result (in the assay with GFP-tagged SSA1; in assay [2]) was “binds” throughout.

B3: CA17457 (VHH)
VHH: QVQLVESGGGLVQTGGSLRLSCAASGGHFSNLAMGWFRQAPGKEREFVAAIGRSQFNLLYSNFVKGRFTISRDNAENTVYLQLNSLNSEDTAIYYCASSGGVSDWRGIMTTGARLARNYDYWGQGTQVTVSS
notes: as for B2
Consider B3, for which the binding result (with GFP-tagged PGI1; in assay [1]) was “binds” in each case.

B4: CA17563 (VHH)
VHH: QVQLVESGGGTVQAGDSLRLSCSASGRALTPYTMAWFRQPPGKERELVAAIGRTGSGTRYAEAVKDRFTISRDNDKQELYLQMNSLKPEDTAVYYCAANRRLTTSLEYDYWGQGTQVTVSS
notes: as for B2
With B4, the binding result (in the assay with GFP-tagged SSA1; in assay [2]) was “binds” each time.

B5: CA17456 (VHH)
VHH: QVQLVESGGGLVQPGGSLRLSCAASRSIVTINVMGWYRQAPGKEREFVAGATSGGSTDYADSVKGRFTISRDNAKNTVYLQMNSLKPEDTAVYYCNLRGTGYNYGENYWGKGTQVTVSS
notes: as for B2
Turning to B5, the binding result (in the assay with GFP-tagged PGI1; in assay [1]) was “binds” throughout.

B6: CA17565 (VHH)
VHH: QVQLVESGGGRVQPGGSLRLSCVASGFTFTSYGMSWYRQTPGKEREFVAAISSESTWADYGDSVKGRFTISRDNAKKMVYLQMNSLKPDDTAVYYCNRDQVPWPTWGPGTQVTVSS
notes: as for B2
As to B6, the binding result (with GFP-tagged SSA1; in assay [2]) was “binds” throughout.
